For assay [1], the target named is T1, human GPRC5D (human, UniProt Q9NZD1 1-345).
T1 construct: whole, on cells; also called hGPRC5D; G-protein coupled receptor family C group 5 member D
Nature of the assay: flow cytometry, KHM-1B cells. As for the experimental part:
Human multiple myeloma cell line KHM-1B cells (JCRB Cell Bank) expressing GPRC5D were adjusted to a concentration of 5×10⁶ cells/mL with PBS containing 5% FBS, inoculated in an amount of 100 μL/well to a 96-well U-bottomed microplate, and centrifuged to remove a supernatant. Each rat anti-GPRC5D antibody (2A4, 2B1, and 7B4) adjusted to 0.32 ng/mL to 10 μg/mL in Example 1)-7 was added thereto in an amount of 100 μL/well, and the plate was left standing at 4° C. for 1 hour. The cells were washed twice with PBS containing 5% FBS. Then, PE Goat Anti-Rat Ab (Becton, Dickinson and Company) diluted 100-fold with PBS containing 5% FBS was added thereto at a concentration of 100 μL/well, and the plate was left standing at 4° C. for 1 hour. The cells were washed twice with PBS containing 5% FBS and then resuspended in PBS containing 5% FBS, followed by detection using a flow cytometer (FACSCanto™ II; Becton, Dickinson and Company). The data was analyzed using Flowjo (Tree Star, Inc.). The PE fluorescence intensity of the cell fraction was plotted to a histogram, and the mean fluorescence intensity (MFI) was calculated.

The target in assay [2] is T1, human GPRC5D. Nature of the assay: flow cytometry, KMS-34 cells. (In general: In flow cytometry, cells or beads pass a laser one at a time.)
Assay [3] concerns the target T2, human GPRC5D amino-terminal peptide MYKDCIESTGDYFLLCDAEGPWGIILE-K(Biotin)-NH2, having an intramolecular … (human, C-terminal lysine carrying biotin, C-terminal amide; intramolecularly formed disulfide bond).
T2 construct: Peptide Institute synthetic peptide; also called amino-terminal peptide of biotinylated human GPRC5D (disulfide bond present)
T2 peptide: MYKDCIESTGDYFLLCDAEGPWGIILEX
Put plainly: ELISA, immobilised biotinylated peptide with disulfide bond. The source says:
(§1) Epitopes bound by the obtained rat anti-GPRC5D antibodies (2A4, 2B1, and 7B4) were identified using a human GPRC5D amino-terminal peptide […](Biotin)-NH₂ (Sigma-Aldrich Corp.) (SEQ ID NO: 1 of the Sequence Listing; FIG. 2) having a biotinylated carboxy-terminal peptide and lacking an intramolecularly formed disulfide bond, and a human GPRC5D amino-terminal peptide […]-K(Biotin)-NH₂ (Peptide Institute, Inc.) (SEQ ID NO: 2 of the Sequence Listing; FIG. 3) having a lysine-containing biotinylated carboxy terminus and having an intramolecularly formed disulfide bond. Each peptide diluted with PBS was added to Nunc Immobilizer (Thermo Fisher Scientific Inc.), and the plate was left standing at room temperature for 1 hour. After washing three times with PBST, […] containing 1% BSA was added thereto, and the plate was left standing at room temperature for 1 hour. After washing three times with PBST, each rat anti-GPRC5D antibody (2A4, 2B1, and 7B4) prepared in Example 1)-7 and diluted to 0.1 ng/mL to 1 μg/mL with PBS was added thereto, and the plate was left standing at room temperature for 1 hour. […] After washing three times with PBST, SuperSignal™ ELISA Pico Chemiluminescent Substrate (Thermo Fisher Scientific Inc.) was added thereto, and the luminescence was measured using a plate reader (ENVISION; PerkinElmer, Inc.).
Background: ELISA stands for enzyme-linked immunosorbent assay.

The target of assay [4] is T3, human GPRC5D amino-terminal peptide …(Biotin)-NH2, lacking an intramolecular disulfide bond (human, biotinylated carboxy terminus, C-terminal amide; no intramolecularly formed disulfide bond).
T3 construct: Sigma-Aldrich synthetic peptide; also called amino-terminal peptide of human GPRC5D (disulfide bond absent)
T3 peptide: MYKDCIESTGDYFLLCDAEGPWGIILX
Put plainly: ELISA, immobilised biotinylated peptide without disulfide bond.
Text: as §1

For assay [5], the target named is T4, amino-terminal peptide of cynomolgus monkey GPRC5D …(Biotin)-NH2 (cynomolgus monkey, C-terminal lysine carrying biotin, C-terminal amide).
T4 construct: also called amino-terminal peptide of biotinylated cynomolgus monkey GPRC5D
T4 peptide: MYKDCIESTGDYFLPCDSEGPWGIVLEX
Put plainly: ELISA, biotinylated peptide on NeutrAvidin. As for the experimental part: (§2) NeutrAvidin diluted to 1 μg/mL with PBS was added in an amount of 50 μL/well to 96-well Maxi-sorp plate, and the plate was left standing overnight at 4° C. for immobilization. After washing three times with an ELISA buffer, the amino-terminal peptide of the biotinylated human or cynomolgus monkey GPRC5D (used in Example 10)-1) diluted to 1 μg/mL with PBS was added thereto, and the plate was shaken at room temperature for 1 hour. After washing three times with an ELISA buffer, the plate was blocked with Blocker Casein and washed three times with an ELISA buffer. Then, the culture solution of the IgG-expressing FreeStyle 293F cells was added to the plate and reacted at room temperature for 2 hours. After washing three times with an ELISA buffer, a horseradish peroxidase (HRP)-labeled anti-human Fab antibody (Jackson ImmunoResearch Laboratories, Inc.) diluted 2500-fold with ELISA buffer was added thereto in an amount of 50 μL/well and reacted at room temperature for 1 hour. After washing five times with an ELISA buffer, SuperSignal Pico ELISA Chemiluminescent substrate was added. After 10 minutes, the chemiluminescence was measured using a plate reader.

The target of assay [6] is T1, human GPRC5D. Put plainly: flow cytometry on KHM-1B cells (human GPRC5D), PE anti-human IgG Fc detection, rMFI = MFI minus isotype control. The protocol:
Human multiple myeloma cell line KHM-1B cells expressing GPRC5D were adjusted to a concentration of 2×10⁶ cells/mL with PBS containing 5% FBS, inoculated in an amount of 100 μL/well to a 96-well U-bottomed microplate, and centrifuged to remove the supernatant. The culture supernatant of each human anti-GPRC5D antibody (full-length IgG form containing C2037, C3048, C3015, or C3022) obtained in Example 10)-5 or Human IgG isotype control antibody (Calbiochem/Merck Millipore Corp.) adjusted to 14 ng/mL to 30 μg/mL was added thereto in an amount of 100 μL/well, and the plate was left standing at 4° C. for 1 hour. The cells were washed twice with PBS containing 5% FBS. Then, R-Phycoerythrin AffiniPure F(ab′)2 Fragment Goat Anti-Human IgG, Fcγ Fragment Specific (Jackson ImmunoResearch Laboratories, Inc.) diluted 100-fold with PBS containing 5% FBS was added thereto in an amount of 100 μL/well, and the plate was left standing at 4° C. for 1 hour. The cells were washed twice with PBS containing 5% FBS and then resuspended in PBS containing 5% FBS, followed by detection using a flow cytometer (FACSCanto™ II; Becton, Dickinson and Company). The data was analyzed using Flowjo (Tree Star, Inc.). The PE fluorescence intensity of the cell fraction was plotted to a histogram, and the mean fluorescence intensity (MFI) was calculated. The MFI value of the control antibody was subtracted from the MFI value of the GPRC5D antibody to calculate a relative value of MFI (rMFI).

Assay [7] deals with T2, human GPRC5D amino-terminal peptide …. Put plainly: ELISA, chemiluminescence: biotinylated amino-terminal peptide of human GPRC5D on NeutrAvidin, culture supernatant of IgG-expressing cells (one concentration, not given), HRP anti-human Fab detection. As for the experimental part: as §2

B1: rat anti-GPRC5D antibody 2B1 (antibody, V domains shown)
VH: QVTLKESGPGILQPSQTLSLTCTFSGFSLNTYDMGVGWIRQPSGKGLEWLANIWWDDDKYYNPSLRNRLTISKDTSNNQAFLKITNVDTADTATYYCARIETVRVSRKGFAHWGQGTLVTVSS
VL: ETVMTQSPTSMSTSIGERVTLNCKASQSVGINVDWYQQTPGQSPKLLIYGASNRHTGVPDRFTGSGFGRDFTLTISNVEAEDLAVYYCLQHGSIPPTFGGGTKLELK
notes: Rat IgG2b, kappa chain
What is called Kd is the concentration at which binding is half-saturated. For B1, the figures for the Kd in assay [1] and in assay [2] were 14.8 nM and 12.7 nM, respectively. Further, the entries for the “MFI (max)” value in assay [1] and in assay [2] were 2390 and 3160, respectively. The binding result in assay [3] and in assay [4] was “binds” each time.

B2: IgG form of the human antibody C3015 (antibody, V domains shown)
VH: EVQLVESGGGVVQPGRSLRLSCAASGFTFRNYAMSWVRQAPGKGLEWVSGISGTGGSTYYADSVKGRFTISRDNSKDTLYLQLNSLRAEDTAVYYCAKSRSMSINYGMDVWGQGTTVTVSS
VL: SYELTQPPSVSVSPGQTVSITCSGDNLGDRYASWYQQKPGQSPVQVIYQDTKRPSGIPERFSGSNSGNTATLTISGTQAMDEADYYCQAWDSNTVVFGGGTKLTVLG
notes: Human IgG1; also called C3015 IgG form; full-length IgG form containing C3015
Take B2: the binding result in assay [5], in assay [6] and in assay [7] was “binds” each time.
